Legend:
Assay in all cases: cell-based or functional assay
[1] = target: T1, HLA-A2/MAGE-A4 peptide MHC (pMHC) complex on cells (human)
[2] = target: T1, HLA-A2/MAGE-A4 peptide MHC (pMHC) …; remark: listed apart in the source
[3] = target: T1, HLA-A2/MAGE-A4 peptide MHC (pMHC) …; remark: listed apart in the source
pfkA = pfkA (human)
DPYSL3 = DPYSL3 (human)
gutQ = gutQ (human)
UBE2V2 = UBE2V2 (human)
DPYSL4 = DPYSL4 (human)
PIGG = PIGG (human)
CRMP1 = CRMP1 (human)
BNRF1 = BNRF1 (human)
EDC3 = EDC3 (human)
FBXO34 = FBXO34 (human)
SLC45A1 = SLC45A1 (human)
KEAP1 = KEAP1 (human)
UNC80 = UNC80 (human)
VPS13D = VPS13D (human)
MAGEB2 = MAGEB2 (human)
ARF1 = ARF1 (human)
ARF3 = ARF3 (human)
URB1 = URB1 (human)
GAPDHS = GAPDHS (human)
CCS = CCS (human)
KDM1A = KDM1A (human)
DYNC1H1 = DYNC1H1 (human)
MTOR = MTOR (human)
PKP1 = PKP1 (human)
[4] = target: HLA-A2 with peptide MAGB6 on T2 cells (human)
[5] = target: HLA-A2 with peptide MAGA10 on T2 cells (human)
T9A = T9A (human)
V10A = V10A (human)
G1A = G1A (human)
V2A = V2A (human)
Y3A = Y3A (human)
D4A = D4A (human)
G5A = G5A (human)
R6A = R6A (human)
E7A = E7A (human)
H8A = H8A (human)
[6] = target: T1, HLA-A2/MAGE-A4 peptide MHC (pMHC) …; remark: listed apart in the source

B1: Molecule E (bispecific antibody, V domains shown)
VH 1: not shown
VL 1: SSELTQDPAVSVALGQTVRITCQGDSLRSYYASWYQQKPGQAPVLVIYGKNNRPSGIPDRFSGSSSGNTASLTITGAQAEDEADYYCNSRQSSYYHHIVFGGGTKLTVL
VH 2: not shown
VL 2: QAVVTQEPSLTVSPGGTVTLTCGSSTGAVTTSNYANWVQEKPGQAFRGLIGGTNKRAPGTPARFSGSLLGGKAALTLSGAQPEDEAEYYCALWYSNLWVFGGGTKLTVL
With B1 the “EC50 [pM] 24 h, T-cell mediated lysis of MAGE-A4 peptide pulsed T2 cells” value [1] was 32.7 pM, the “EC50 [pM], activation of Jurkat-NFAT reporter cells (luminescence, 6 h) with MAGE-A4 peptide pulsed T2 cells” value [2] was 877 pM and the “EC50 [pM], T-cell mediated lysis of C-33A cells, 24 h” value [3] was 3980 pM. The “EC50 [pM], T-cell mediated lysis of IM-9 cells, 24 h” value [3] was 393 pM, the “EC50 [pM], T-cell mediated lysis of NCI-H1755 cells, 24 h” value [3] was 84.4 pM and the “EC50 [pM], T-cell mediated lysis of UMUC-3 cells, 24 h” value [3] was roughly 5800 pM. The “% of MAGE-A4 signal, Jurkat-NFAT” value (pfkA) was 0.26%, the “% of MAGE-A4 signal, Jurkat-NFAT” value (DPYSL3) was 1.04% and the “% of MAGE-A4 signal, Jurkat-NFAT” value (gutQ) was 0.31%. The “% of MAGE-A4 signal, Jurkat-NFAT” value (UBE2V2) was 0.4%, the “% of MAGE-A4 signal, Jurkat-NFAT” value (DPYSL4) was 0.48% and the “% of MAGE-A4 signal, Jurkat-NFAT” value (PIGG) was 0.26%. The “% of MAGE-A4 signal, Jurkat-NFAT” value (CRMP1) was 0.37%, the “% of MAGE-A4 signal, Jurkat-NFAT” value (BNRF1) was 0.45% and the “% of MAGE-A4 signal, Jurkat-NFAT” value (EDC3) was 0.54%. For the same binder, the “% of MAGE-A4 signal, Jurkat-NFAT; grey (>2%)” value (shortened to “% of MAGE-A4 signal … (>2%)”) (FBXO34) was 4.03%, the “% of MAGE-A4 signal, Jurkat-NFAT” value (SLC45A1) was 0.38% and the “% of MAGE-A4 signal, Jurkat-NFAT” value (KEAP1) was 0.34%. The “% of MAGE-A4 signal, Jurkat-NFAT” value (UNC80) was 0.49%, the “% of MAGE-A4 signal … (>2%)” value (VPS13D) was 47% and the “% of MAGE-A4 signal … (>2%)” value (MAGEB2) was 108%. The “% of MAGE-A4 signal, Jurkat-NFAT” value (ARF1) was 0.93%, the “% of MAGE-A4 signal, Jurkat-NFAT” value (ARF3) was 0.85% and the “% of MAGE-A4 signal, Jurkat-NFAT” value (URB1) was 1.2%. The “% of MAGE-A4 signal, Jurkat-NFAT” value (GAPDHS) was 0.39%, the “% of MAGE-A4 signal … (>2%)” value (CCS) was 38.6% and the “% of MAGE-A4 signal, Jurkat-NFAT” value (KDM1A) was 0.34%. For the same binder, the “% of MAGE-A4 signal, Jurkat-NFAT” value (DYNC1H1) was 0.17%, the “% of MAGE-A4 signal, Jurkat-NFAT” value (MTOR) was 0.29% and the “% of MAGE-A4 signal, Jurkat-NFAT” value (PKP1) was 0.43%. The “% of MAGE-A4 signal … (>2%)” value [4] was 110%, the “% of MAGE-A4 signal … (>2%)” value [5] was 43.2% and the “EC50, Jurkat-NFAT activation” value (T9A) was 4.26 nM. The “EC50, Jurkat-NFAT activation” value (V10A) was 7.46 nM, the “EC50, Jurkat-NFAT activation” value (G1A) was 2.72 nM and the “EC50, Jurkat-NFAT activation” value (V2A) was 4.07 nM. For the same binder, the “EC50, Jurkat-NFAT activation” value (Y3A) was 2.06 nM, the “EC50, Jurkat-NFAT activation” value (D4A) was 22.3 nM and the “EC50, Jurkat-NFAT activation” value (G5A) was 9.44 nM. For the same binder, the “EC50, Jurkat-NFAT activation” value (R6A) was 2.37 nM, the “EC50, Jurkat-NFAT activation” value (E7A) was 2.98 nM and the “EC50, Jurkat-NFAT activation” value (H8A) was 1.23 nM. The “EC50, Jurkat-NFAT activation” value [6] was 1.62 nM.

Reference: US20260098095A1 (Hoffmann-La Roche, published 2026)
